Experimental data published in patent US20190085043A1, “FUSION PROTEINS FOR TREATING A METABOLIC SYNDROME” (SANOFI, priority 2012, published 2019).

Key:
MAP kinase ERK1/2 = assay: ERK1/2 phosphorylation In-Cell Western (pERK ICW) in CHO cells overexpressing human FGFR1c plus KLB; type: cell-based; settings: ERK1/2 phosphorylation Thr202/Tyr204
Procedure: FIG. 1C-1 to FIG. 1C-3) Dose dependent in vitro activation of the downstream effector ERK. Activation of the downstream effector of FGF signaling, the MAP kinase ERK1/2, was determined via In-Cell Western assay in CHO cells stably overexpressing human FGFR1c and KLB using an antibody directed against the ERK1/2 phosphorylated amino acid residues threonine 202 and tyrosine 204.
(§1) CHO Flp-In cells (Invitrogen, Darmstadt, Germany) stable expressing the human FGFR1c together with human beta-Klotho (KLB) were used for FGF-21 receptor autophosphorylation assay using In-Cell Western. In order to determine the receptor autophosphorylation level, 2×10^4 cells/well were seeded into 96-well plates and grown for 48 h. Cells were serum starved with serum-free medium Ham's F-12 Nutrient Mix with GlutaMAX (Gibco, Darmstadt, Germany) for 3-4 h. The cells were subsequently treated with increasing concentrations of either human FGF-21, the indicated FGF-21 fusion protein, or other peptides for 5 min at 37° C. After incubation the medium was discarded and the cells were fixed in 3.7% freshly prepared para-formaldehyde for 20 min. Cells were permeabilized with 0.1% Triton-X-100 in PBS for 20 min. Blocking was performed with Odyssey blocking buffer (LICOR, Bad Homburg, Germany) for 2 h at room temperature. Anti-pFGFR Tyr653/654 (New England Biolabs, Frankfurt, Germany) was incubated overnight at 4° C. After incubation of the primary antibody, cells were washed with PBS+0.1% Tween20. The secondary anti-Mouse 800CW antibody (LICOR, Bad Homburg, Germany) was incubated for 1 h at room temperature. Subsequently cells were washed again with PBS+0.1% Tween20 and infrared dye signals were quantified with an Odyssey imager (LICOR, Bad Homburg, Germany). Results were normalized by quantification of DNA with TO-PRO3 dye (Invitrogen, Karlsruhe, Germany). FIG. 1B-1 to FIG. 1B-4 show the results from an ICW with CHO cells overexpressing human FGFR1c plus KLB.
To assess the activation of a downstream effector of FGFR signalling by FGF-21-GLP-1RA fusion proteins the phosphorylation of MAP kinases ERK1/2 were analysed. The same ICW protocol as described above was used, simply the primary antibody was replaced by anti-phospho-p44/42 MAPK (Erk1/2) (Thr202/Tyr204) (New England Biolabs, Frankfurt, Germany). FIG. 1C-1 to FIG. 1C-3 show the results from ICW with CHO cells overexpressing human FGFR1c plus KLB and detection of ERK1/2 phosphorylation.

human GLP-1 receptor = molecular target: T1, human GLP-1 receptor (Homo sapiens, UniProt P43220); assay: In vitro cellular assay for human GLP-1 receptor efficacy (cAMP HTRF, HEK-293); type: cell-based; settings: HEK-293 cells stably expressing human GLP-1 receptor, read-out: hGLP-1R cAMP EC50
T1 construct: expressed in transfected cells
Procedure: The cAMP content of the cells was determined using a kit from Cisbio Corp. (cat. no. 62AM4PEC) based on HTRF (Homogenous Time Resolved Fluorescence).
The cAMP content of cells was determined using a kit from Cisbio Corp. (cat. no. 62AM4PEC) based on HTRF (Homogenous Time Resolved Fluorescence). For preparation, cells were split into T175 culture flasks and grown overnight to near confluence in medium (DMEM/10% FBS). Medium was then removed and cells washed with PBS lacking calcium and magnesium, followed by proteinase treatment with accutase (Sigma-Aldrich cat. no. A6964). Detached cells were washed and resuspended in assay buffer (1×HBSS; 20 mM HEPES, 0.1% BSA, 2 mM IBMX) and cellular density determined. They were then diluted to 4×10^5cells/mL and 25 μL-aliquots dispensed into the wells of 96-well plates. For measurement, 25 μL of test compound in assay buffer was added to the wells, followed by incubation for 30 minutes at room temperature.

human FGFR1c plus KLB = human FGFR1c plus KLB (Homo sapiens, UniProt P11362+Q86Z14); assay: FGF-21 receptor autophosphorylation In-Cell Western (pFGFR ICW) in CHO cells; type: cell-based; settings: CHO cells overexpressing human FGFR1c plus KLB, FGFR autophosphorylation
Procedure: FIG. 1B-1 to FIG. 1B-4) The FGF induced FGFR autophosphorylation was measured via a specific and highly sensitive In-Cell Western (ICW) in CHO cells stably overexpressing human FGFR1c together with human betaKlotho (KLB). In-Cell Western assay is an immunocytochemical assay usually performed in microplate format. Target-specific primary antibodies and infrared-labelled secondary antibodies are used to detect target proteins in fixed cells, and fluorescent signal from each well is quantified (e.g. the In-Cell Western assay from LI-COR Biosciences, USA).
The cellular efficacy of FGF-21 or FGF-21 fusion proteins was measured using a specific and highly sensitive In-Cell Western (ICW) assay. The ICW assay is an immunocytochemical assay usually performed in microplate format.
as §1

ob/ob mice = assay: Treatment of ob/ob mice by chronic infusion (Alzet pumps, 11 days); type: in vivo, mouse; settings: for Relative body weight change (%): after 11 days of treatment
Procedure: Female ob/ob mice (B6.V-LEP OB/J, age of 9 weeks) were obtained from Charles Rivers Laboratories (Sulzfeld, Germany). Mice were randomly assigned to treatment or vehicle groups, and the randomization was stratified by body weight and fed blood glucose levels. The animals were housed in groups of 8 at 23° C. and on a 12 h light-dark cycle. All experimental procedures were conducted according to German Animal Protection Law. Mice were fed ad libitum with standard rodent chow during the drug treatment periods. Body weight and food intake was recorded every other day throughout the study.
Ob/ob mice were treated with vehicle (PBS), 0.03, 0.1, 0.3, and 1.0 mg·kg^−1·day^−1 recombinant Exenatide-IEGR-FGF-21 (SEQ ID NO: 15) via chronic infusion by Alzet pumps (type 1004) over 11 days.
At the end of the study liver weight and liver triglycerides were analysed.
Two days before pump implantation and after 11 days of treatment blood glucose was measured by tail tip bleeding under fed conditions. As shown in FIGS. 10 and 11 blood glucose levels of the chronic infused mice were decreased dose-dependently with highest effect at the dosage of 1.0 mg·kg^−1·day^−1 recombinant fusion protein.

[1] = 0.03, 0.1, 0.3 and 1 mg/kg, end of study

T1 sequence (P43220 24-463): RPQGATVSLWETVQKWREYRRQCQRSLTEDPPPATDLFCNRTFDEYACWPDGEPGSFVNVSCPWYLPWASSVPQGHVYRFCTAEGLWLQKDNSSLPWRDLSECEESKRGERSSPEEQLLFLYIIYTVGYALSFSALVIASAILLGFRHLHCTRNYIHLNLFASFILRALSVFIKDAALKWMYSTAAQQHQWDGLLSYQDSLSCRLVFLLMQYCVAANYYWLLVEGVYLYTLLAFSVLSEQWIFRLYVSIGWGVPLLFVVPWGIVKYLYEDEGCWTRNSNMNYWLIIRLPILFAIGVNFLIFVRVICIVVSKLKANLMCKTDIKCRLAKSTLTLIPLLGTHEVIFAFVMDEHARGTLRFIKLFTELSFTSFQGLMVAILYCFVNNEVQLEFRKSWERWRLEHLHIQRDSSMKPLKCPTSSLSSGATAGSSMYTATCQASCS
Sequence of human FGFR1c plus KLB (P11362 22-822): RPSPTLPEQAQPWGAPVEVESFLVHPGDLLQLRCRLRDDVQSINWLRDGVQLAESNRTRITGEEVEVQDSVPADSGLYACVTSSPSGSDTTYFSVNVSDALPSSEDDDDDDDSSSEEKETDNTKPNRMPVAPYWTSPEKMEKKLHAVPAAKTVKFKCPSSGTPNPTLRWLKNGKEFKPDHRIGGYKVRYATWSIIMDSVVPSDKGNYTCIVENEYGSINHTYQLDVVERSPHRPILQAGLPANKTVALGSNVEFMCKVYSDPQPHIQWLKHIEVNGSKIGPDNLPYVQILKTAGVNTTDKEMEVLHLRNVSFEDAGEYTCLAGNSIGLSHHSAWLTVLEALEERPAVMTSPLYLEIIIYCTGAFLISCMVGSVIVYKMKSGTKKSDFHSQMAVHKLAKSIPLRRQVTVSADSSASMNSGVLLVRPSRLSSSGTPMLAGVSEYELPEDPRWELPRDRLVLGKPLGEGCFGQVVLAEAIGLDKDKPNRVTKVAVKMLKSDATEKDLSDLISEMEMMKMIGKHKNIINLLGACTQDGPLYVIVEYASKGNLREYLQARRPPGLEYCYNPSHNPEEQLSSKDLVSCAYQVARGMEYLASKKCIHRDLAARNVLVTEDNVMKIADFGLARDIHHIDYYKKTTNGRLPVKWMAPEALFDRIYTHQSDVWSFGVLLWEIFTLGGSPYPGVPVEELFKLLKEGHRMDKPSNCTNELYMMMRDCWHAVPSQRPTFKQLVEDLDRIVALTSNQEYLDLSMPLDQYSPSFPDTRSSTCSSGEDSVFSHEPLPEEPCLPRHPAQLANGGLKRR
Sequence of human FGFR1c plus KLB (Q86Z14 whole entry): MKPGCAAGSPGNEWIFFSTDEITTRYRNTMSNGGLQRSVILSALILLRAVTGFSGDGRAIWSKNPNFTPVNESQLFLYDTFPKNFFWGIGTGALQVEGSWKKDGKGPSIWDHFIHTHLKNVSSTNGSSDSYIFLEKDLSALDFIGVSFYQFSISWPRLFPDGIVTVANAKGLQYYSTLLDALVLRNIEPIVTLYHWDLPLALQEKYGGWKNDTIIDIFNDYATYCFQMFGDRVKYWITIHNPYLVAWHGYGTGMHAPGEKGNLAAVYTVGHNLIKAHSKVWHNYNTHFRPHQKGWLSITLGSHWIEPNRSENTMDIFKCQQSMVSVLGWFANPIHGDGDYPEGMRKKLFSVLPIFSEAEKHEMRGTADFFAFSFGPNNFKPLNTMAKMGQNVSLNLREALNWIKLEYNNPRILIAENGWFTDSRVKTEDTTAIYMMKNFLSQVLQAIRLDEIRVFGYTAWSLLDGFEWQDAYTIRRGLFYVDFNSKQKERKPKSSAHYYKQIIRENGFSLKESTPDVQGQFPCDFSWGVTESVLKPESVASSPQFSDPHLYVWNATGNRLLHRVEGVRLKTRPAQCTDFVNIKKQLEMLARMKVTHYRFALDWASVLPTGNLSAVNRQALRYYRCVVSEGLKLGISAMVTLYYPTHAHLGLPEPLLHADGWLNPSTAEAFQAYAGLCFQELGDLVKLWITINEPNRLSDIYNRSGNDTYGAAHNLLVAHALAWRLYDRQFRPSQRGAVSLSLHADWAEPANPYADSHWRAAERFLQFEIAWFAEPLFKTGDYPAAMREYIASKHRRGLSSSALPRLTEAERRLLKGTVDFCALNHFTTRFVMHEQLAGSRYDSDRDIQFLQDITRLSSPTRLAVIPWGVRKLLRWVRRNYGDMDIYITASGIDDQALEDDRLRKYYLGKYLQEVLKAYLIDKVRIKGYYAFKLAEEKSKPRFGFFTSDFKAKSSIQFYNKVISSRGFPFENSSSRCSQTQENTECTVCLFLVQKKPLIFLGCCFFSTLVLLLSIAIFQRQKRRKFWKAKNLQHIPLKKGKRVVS

Work on “Exenatide-GGGGS-His-GGGGS-ABD-GG-FGF21: fusion protein, GGGGS-His-GGGGS-ABD-GG = linker” yielded an EC50 (MAP kinase ERK1/2) of 4.97 nM and an EC50 (human GLP-1 receptor) of 0.00254 nM.

“Lixisenatide-IEGR-FGF21: fusion protein lixisenatide - Factor Xa cleavage site - FGF21” was tested, and the EC50 (human FGFR1c plus KLB) was 3.1 nM, the EC50 (MAP kinase ERK1/2) was 1 nM and the EC50 (human GLP-1 receptor) was 0.0038 nM.

“Exenatide-GSGS-FGF21: fusion protein, GSGS = linker” showed an EC50 (human FGFR1c plus KLB) of 19.1 nM, an EC50 (MAP kinase ERK1/2) of 0.53 nM and an EC50 (human GLP-1 receptor) of 0.0072 nM.

“Exenatide-APSPAS-FGF21: fusion protein, linker based on PAS sequence” showed an EC50 (human FGFR1c plus KLB) of 4.1 nM, an EC50 (MAP kinase ERK1/2) of 0.27 nM and an EC50 (human GLP-1 receptor) of 0.003 nM.

“Exenatide-FGF21: fusion protein of exenatide and human FGF-21 His29-Ser209 without linker” was tested, and the EC50 (human FGFR1c plus KLB) was 1.3 nM, the EC50 (MAP kinase ERK1/2) was 0.51 nM and the EC50 (human GLP-1 receptor) was 0.0041 nM.

Substance “Exenatide-APSCPAS-FGF21: fusion protein, linker based on PAS sequence plus Cystein for potential modification” has an EC50 (human FGFR1c plus KLB) of 193 nM, an EC50 (MAP kinase ERK1/2) of 10.9 nM and an EC50 (human GLP-1 receptor) of 0.0132 nM.

In the case of “Exenatide-FGF21-GG-ABD-GG-FGF21: fusion protein, GG-ABD-GG = linker”, the EC50 (human FGFR1c plus KLB) is reported as 37.3 nM, the EC50 (MAP kinase ERK1/2) is reported as 4.34 nM and the EC50 (human GLP-1 receptor) is reported as 0.0216 nM.

In the case of “Exenatide-GG-ABD-GG-FGF21: fusion protein, GG-ABD-GG = linker”, the EC50 (human GLP-1 receptor) is reported as 0.0159 nM.

In the case of “Exenatide-GGGRR-FGF21: fusion protein, GGGRR protease cleavage site linker”, the EC50 (human FGFR1c plus KLB) is reported as 7.4 nM, the EC50 (MAP kinase ERK1/2) is reported as 0.98 nM and the EC50 (human GLP-1 receptor) is reported as 0.0077 nM.

“Exenatide-FGF21-GG-ABD: fusion protein, GG-ABD = linker (albumin binding domain)” showed an EC50 (human FGFR1c plus KLB) of 79.8 nM, an EC50 (MAP kinase ERK1/2) of 89.9 nM and an EC50 (human GLP-1 receptor) of 0.00796 nM.

Work on “Exenatide-IEGQ-FGF21: fusion protein, IEGQ = linker (mutated/defect Factor Xa cleavage site)” yielded an EC50 (human FGFR1c plus KLB) of 35.4 nM, an EC50 (MAP kinase ERK1/2) of 0.79 nM and an EC50 (human GLP-1 receptor) of 0.0061 nM.

In the case of “Exenatide-IEGR-FGF21: fusion protein exenatide - Factor Xa cleavage site IEGR linker - FGF21”, the “Relative body weight change (%)” value (ob/ob mice; 0.03 mg/kg, chronic infusion) is reported as “+6.6%”, the “Relative body weight change (%)” value (ob/ob mice; 0.1 mg/kg, chronic infusion) is reported as “+1.1%” and the “Relative body weight change (%)” value (ob/ob mice; 0.3 mg/kg, chronic infusion) is reported as −2.6%. The “Relative body weight change (%)” value (ob/ob mice; 1 mg/kg, chronic infusion) was −17.8%, the “highest reduction of body weight” value (ob/ob mice; 1 mg/kg, chronic infusion) was 17.8% and the body weight (ob/ob mice; 0.03, 0.1, 0.3 and 1 mg/kg, chronic infusion) was “dose dependent decrease”. For the same substance, the liver triglycerides (ob/ob mice; [1]) was “dose dependent decrease”, the total liver weight (ob/ob mice; [1]) was “dose dependent decrease” and the blood glucose (ob/ob mice; 0.03, 0.1, 0.3 and 1 mg/kg, fed, after 11 days of chronic infusion) was “dose dependent decrease”. The EC50 (human FGFR1c plus KLB) was 1.9 nM, the EC50 (MAP kinase ERK1/2) was 0.4 nM and the EC50 (human GLP-1 receptor) was 0.004 nM.

Substance “Lixisenatide-FGF21: fusion protein of lixisenatide and FGF21 without linker” has an EC50 (human FGFR1c plus KLB) of 3.7 nM, an EC50 (MAP kinase ERK1/2) of 0.24 nM and an EC50 (human GLP-1 receptor) of 0.0037 nM.
